Measured values as given in patent US20240100162A1 (published 2024).

How the values were obtained:
Experiment in all cases: killing
[1] = target: T1, MAGE-B2 peptide, S9H peptide on HLA-A*02:01 (human)
T1 peptide: GVYDGEEHHV

[2] = target: T2, MAGE-A4 peptide on HLA-A*02:01 (human)
T2 peptide: GVYDGREHTV

[3] = target: T3, MAGE-B2 peptide, H8V peptide on HLA-A*02:01 (human)
T3 peptide: GVYDGEEVSV

[4] = target: T4, MAGE-B2 peptide, H8G peptide on HLA-A*02:01 (human)
T4 peptide: GVYDGEEGSV

[5] = target: T5, MAGE-B2 peptide, H8A peptide on HLA-A*02:01 (human)
T5 peptide: GVYDGEEASV

[6] = target: T6, MAGE-B2 peptide, H8Q peptide on HLA-A*02:01 (human)
T6 peptide: GVYDGEEQSV

[7] = target: T7, MAGE-B2 peptide, H8T peptide on HLA-A*02:01 (human)
T7 peptide: GVYDGEETSV

[8] = target: T8, MAGE-B2 peptide, E7A peptide on HLA-A*02:01 (human)
T8 peptide: GVYDGEAHSV

[9] = target: T9, MAGE-B2 peptide, E7I peptide on HLA-A*02:01 (human)
T9 peptide: GVYDGEIHSV

[10] = target: T10, MAGE-B2 peptide, E7F peptide on HLA-A*02:01 (human)
T10 peptide: GVYDGEFHSV

[11] = target: T11, MAGE-B2 peptide, S9K peptide on HLA-A*02:01 (human)
T11 peptide: GVYDGEEHKV

[12] = target: T12, MAGE-B2 peptide, H8C peptide on HLA-A*02:01 (human)
T12 peptide: GVYDGEECSV

[13] = target: T13, MAGE-B2 peptide, D4P peptide on HLA-A*02:01 (human)
T13 peptide: GVYPGEEHSV

[14] = target: T14, MAGE-B2 peptide, H8L peptide on HLA-A*02:01 (human)
T14 peptide: GVYDGEELSV

[15] = target: T15, MAGE-B2 peptide, E7T peptide on HLA-A*02:01 (human)
T15 peptide: GVYDGETHSV

[16] = target: T16, MAGE-B2 peptide, Y3W peptide on HLA-A*02:01 (human)
T16 peptide: GVWDGEEHSV

[17] = target: T17, MAGE-B2 peptide, H8P peptide on HLA-A*02:01 (human)
T17 peptide: GVYDGEEPSV

[18] = target: T18, MAGE-B2 peptide, H8D peptide on HLA-A*02:01 (human)
T18 peptide: GVYDGEEDSV

[19] = target: T19, MAGE-B2 peptide, E6S peptide on HLA-A*02:01 (human)
T19 peptide: GVYDGSEHSV

[20] = target: T20, MAGE-B2 peptide, S9R peptide on HLA-A*02:01 (human)
T20 peptide: GVYDGEEHRV

[21] = target: T21, MAGE-B2 peptide, H8M peptide on HLA-A*02:01 (human)
T21 peptide: GVYDGEEMSV

[22] = target: T22, MAGE-B2 peptide, H8S peptide on HLA-A*02:01 (human)
T22 peptide: GVYDGEESSV

[23] = target: T23, MAGE-B2 peptide, H8K peptide on HLA-A*02:01 (human)
T23 peptide: GVYDGEEKSV

[24] = target: T24, MAGE-B2 peptide, E7W peptide on HLA-A*02:01 (human)
T24 peptide: GVYDGEWHSV

[25] = target: T25, MAGE-B2 peptide, S9M peptide on HLA-A*02:01 (human)
T25 peptide: GVYDGEEHMV

[26] = target: T26, MAGE-B2 peptide, E6M peptide on HLA-A*02:01 (human)
T26 peptide: GVYDGMEHSV

[27] = target: T27, MAGE-B2 peptide, E7S peptide on HLA-A*02:01 (human)
T27 peptide: GVYDGESHSV

[28] = target: T28, MAGE-B2 peptide, E6D peptide on HLA-A*02:01 (human)
T28 peptide: GVYDGDEHSV

[29] = target: T29, MAGE-B2 peptide, E6C peptide on HLA-A*02:01 (human)
T29 peptide: GVYDGCEHSV

[30] = target: T30, MAGE-B2 peptide, E6T peptide on HLA-A*02:01 (human)
T30 peptide: GVYDGTEHSV

[31] = target: T31, MAGE-B2 peptide, E6Q peptide on HLA-A*02:01 (human)
T31 peptide: GVYDGQEHSV

[32] = target: T32, MAGE-B2 peptide, G1A peptide on HLA-A*02:01 (human)
T32 peptide: AVYDGEEHSV

[33] = target: T33, MAGE-B2 peptide, S9F peptide on HLA-A*02:01 (human)
T33 peptide: GVYDGEEHFV

[34] = target: T34, MAGE-B2 peptide, S9L peptide on HLA-A*02:01 (human)
T34 peptide: GVYDGEEHLV

[35] = target: T35, MAGE-B2 peptide, E6R peptide on HLA-A*02:01 (human)
T35 peptide: GVYDGREHSV

[36] = target: T36, MAGE-B2 peptide, G5S peptide on HLA-A*02:01 (human)
T36 peptide: GVYDSEEHSV

[37] = target: T37, MAGE-B2 peptide, E7K peptide on HLA-A*02:01 (human)
T37 peptide: GVYDGEKHSV

[38] = target: T38, MAGE-B2 peptide, G1F peptide on HLA-A*02:01 (human)
T38 peptide: FVYDGEEHSV

[39] = target: T39, MAGE-B2 peptide, V10C peptide on HLA-A*02:01 (human)
T39 peptide: GVYDGEEHSC

[40] = target: T40, MAGE-B2 peptide, V10T peptide on HLA-A*02:01 (human)
T40 peptide: GVYDGEEHST

[41] = target: T41, MAGE-B2 peptide, G1Y peptide on HLA-A*02:01 (human)
T41 peptide: YVYDGEEHSV

B1: TCR2 (TCR, V domains shown)
Valpha: QKEVEQNSGPLSVPEGAIASLNCTYSDRGSQSFFWYRQYSGKSPELIMSIYSNGDKEDGRFTAQLNKASQYVSLLIRDSQPSDSATYLCAVNIPFSNSGGYQKVTFGTGTKLQVIP
Vbeta: NAGVTQTPKFRVLKTGQSMTLLCAQDMNHEYMYWYRQDPGMGLRLIHYSVGEGTTAKGEVPDGYNVSRLKKQNFLLGLESAAPSQTSVYFCASRHPGQYNQPQHFGDGTRLSIL
binding result [1]: recognises
binding result [2]: no recognition
binding result [3]: recognises
binding result [4]: recognises
binding result [5]: recognises
binding result [6]: recognises
binding result [7]: recognises
binding result [8]: recognises
binding result [9]: recognises
binding result [10]: recognises
binding result [11]: recognises
binding result [12]: recognises
binding result [13]: recognises
binding result [14]: recognises
binding result [15]: recognises
binding result [16]: recognises
binding result [17]: recognises
binding result [18]: recognises
binding result [19]: recognises
binding result [20]: recognises
binding result [21]: recognises
binding result [22]: recognises
binding result [23]: recognises
binding result [24]: recognises
binding result [25]: recognises
binding result [26]: recognises
binding result [27]: recognises
binding result [28]: recognises
binding result [29]: recognises
binding result [30]: recognises
binding result [31]: recognises
binding result [32]: recognises
binding result [33]: recognises
binding result [34]: recognises

B2: TCR3 (TCR, V domains shown)
Valpha: AQKVTQAQTEISVVEKEDVTLDCVYETRDTTYYLFWYKQPPSGELVFLIRRNSFDEQNEISGRYSWNFQKSTSSFNFTITASQVVDSAVYFCALSVLRMDSSYKLIFGSGTRLLVRP
Vbeta: NAGVTQTPKFRVLKTGQSMTLLCAQDMNHEYMYWYRQDPGMGLRLIHYSVGEGTTAKGEVPDGYNVSRLKKQNFLLGLESAAPSQTSVYFCASSLQGAGQPQHFGDGTRLSIL
binding result [1]: recognises
binding result [2]: recognises
binding result [3]: recognises
binding result [4]: recognises
binding result [5]: recognises
binding result [6]: recognises
binding result [7]: recognises
binding result [8]: recognises
binding result [9]: recognises
binding result [10]: recognises
binding result [35]: recognises
binding result [11]: recognises
binding result [12]: recognises
binding result [14]: recognises
binding result [15]: recognises
binding result [17]: recognises
binding result [18]: recognises
binding result [19]: recognises
binding result [36]: recognises
binding result [20]: recognises
binding result [21]: recognises
binding result [22]: recognises
binding result [23]: recognises
binding result [24]: recognises
binding result [25]: recognises
binding result [26]: recognises
binding result [27]: recognises
binding result [29]: recognises
binding result [37]: recognises
binding result [30]: recognises
binding result [31]: recognises
binding result [33]: recognises
binding result [34]: recognises

B3: TCR1 (TCR, V domains shown)
Valpha: KQEVTQIPAALSVPEGENLVLNCSFTDSAIYNLQWFRQDPGKGLTSLLLIQSSQREQTSGRLNASLDKSSGRSTLYIAASQPGDSATYLCAAMKTSYDKVIFGPGTSLSVIP
Vbeta: GEEVAQTPKHLVRGEGQKAKLYCAPIKGHSYVFWYQQVLKNEFKFLISFQNENVFDETGMPKERFSAKCLPNSPCSLEIQATKLEDSAVYFCASSQGQGGYGYTFGSGTRLTVV
binding result [38]: recognises
binding result [39]: recognises
binding result [13]: recognises
binding result [16]: recognises
binding result [40]: recognises
binding result [36]: recognises
binding result [41]: recognises
binding result [37]: recognises
binding result [32]: recognises
